Drawing on article PMC3663837, this text covers response for 3 substances.

Experiment [1] addresses SUMO-StPTB1. The experiment in a line: phage ELISA. Particulars: parent: est. 0.18; read off a plot. Background: An ELISA detects its analyte on a solid surface through an enzyme-linked reagent.
In experiment [2] the target is SUMO-StPTB6. The experiment in a line: phage ELISA. The following applies: parent: est. 0.19; read off a plot.

For “phage-displayed StNova1 subdomain S2 G15del; G18del; P21del”, the values for the response in experiment [1] and in experiment [2] were 0.11 λ490 and 0.13 λ490, respectively.
On to “phage-displayed StNova1 subdomain S2 G7del; G11del; P13del”, for which the response is 0.044 λ490 in experiment [1] and 0.043 λ490 in experiment [2].
Regarding “phage-displayed StNova1 subdomain S2 G7del; G11del; G15del; G18del”, the response in experiment [1] and in experiment [2] was 0.079 λ490 each time.
